Patent US20140080766A1 (MIT, published 2014)

Target: C7LLO (CEA-binding Fn3 - listeriolysin O fusion protein)

B1: carcinoembryonic antigen (CEA) on HT-1080(CEA) and HT-29 cells (other, human, UniProt P06731 35-685, looked up)
chain: KLTIESTPFNVAEGKEVLLLVHNLPQHLFGYSWYKGERVDGNRQIIGYVIGTQQATPGPAYSGREIIYPNASLLIQNIIQNDTGFYTLHVIKSDLVNEEATGQFRVYPELPKPSISSNNSKPVEDKDAVAFTCEPETQDATYLWWVNNQSLPVSPRLQLSNGNRTLTLFNVTRNDTASYKCETQNPVSARRSDSVILNVLYGPDAPTISPLNTSYRSGENLNLSCHAASNPPAQYSWFVNGTFQQSTQELFIPNITVNNSGSYTCQAHNSDTGLNRTTVTTITVYAEPPKPFITSNNSNPVEDEDAVALTCEPEIQNTTYLWWVNNQSLPVSPRLQLSNDNRTLTLLSVTRNDVGPYECGIQNELSVDHSDPVILNVLYGPDDPTISPSYTYYRPGVNLSLSCHAASNPPAQYSWLIDGNIQQHTQELFISNITEKNSGLYTCQANNSASGHSRTTVKTITVSAELPKPSISSNNSKPVEDKDAVAFTCEPEAQNTTYLWWVNGQSLPVSPRLQLSNGNRTLTLFNVTRNDARAYVCGIQNSVSANRSDPVTLDVLYGPDTPIISPPDSSYLSGANLNLSCHSASNPSPQYSWRINGIPQQHTQVLFIAKITPNNNGTYACFVSNLATGRNNSIVKSITVSASGTSPGLSA
Q: B1 was tested. Which Kd did it give?
A: 4.09 nM
